According to publication PMC2787013, “DNA Specificity Determinants Associate with Distinct Transcription Factor Functions”:

Columns and labels:
Test in all cases: EMSA; Protein 3-fold dilutions with 1e-11 (M) 32P-dsDNA, 30 min on ice, 6% polyacrylamide gel; binding buffer as in earlier paper (not given); protein dialysis buffer 10 mM Tris pH 7.9, 0.5 mM EDTA, 50 mM KCl, 1 mM DTT, 10% glycerol
Details in all cases: protein: recombinant; tags: N-terminal 6xHis (pET28a); label: 32P; (only one strand given)
ELF1 [1] = biological target: T1, ELF1 (human, UniProt P32519 1-619)
ETS1 (p51) [2] = biological target: T2, ETS1 (p51) (human, UniProt P14921 1-441)
T2 sequence: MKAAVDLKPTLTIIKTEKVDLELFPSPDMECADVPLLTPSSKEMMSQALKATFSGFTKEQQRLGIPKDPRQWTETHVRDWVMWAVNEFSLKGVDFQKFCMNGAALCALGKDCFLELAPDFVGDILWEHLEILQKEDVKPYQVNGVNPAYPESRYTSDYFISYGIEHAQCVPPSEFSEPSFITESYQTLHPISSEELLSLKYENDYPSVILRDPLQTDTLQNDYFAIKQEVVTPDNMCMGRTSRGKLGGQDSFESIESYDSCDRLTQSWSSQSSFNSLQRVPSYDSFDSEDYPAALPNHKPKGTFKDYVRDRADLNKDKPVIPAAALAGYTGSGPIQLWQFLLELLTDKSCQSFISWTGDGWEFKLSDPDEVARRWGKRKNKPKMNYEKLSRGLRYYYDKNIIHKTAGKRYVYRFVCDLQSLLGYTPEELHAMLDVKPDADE

ELF1 [3] = biological target: T1, ELF1; remark: listed apart in the source
ETS1 (p51) [4] = biological target: T2, ETS1 (p51); remark: listed apart in the source

T1 sequence (P32519 whole entry): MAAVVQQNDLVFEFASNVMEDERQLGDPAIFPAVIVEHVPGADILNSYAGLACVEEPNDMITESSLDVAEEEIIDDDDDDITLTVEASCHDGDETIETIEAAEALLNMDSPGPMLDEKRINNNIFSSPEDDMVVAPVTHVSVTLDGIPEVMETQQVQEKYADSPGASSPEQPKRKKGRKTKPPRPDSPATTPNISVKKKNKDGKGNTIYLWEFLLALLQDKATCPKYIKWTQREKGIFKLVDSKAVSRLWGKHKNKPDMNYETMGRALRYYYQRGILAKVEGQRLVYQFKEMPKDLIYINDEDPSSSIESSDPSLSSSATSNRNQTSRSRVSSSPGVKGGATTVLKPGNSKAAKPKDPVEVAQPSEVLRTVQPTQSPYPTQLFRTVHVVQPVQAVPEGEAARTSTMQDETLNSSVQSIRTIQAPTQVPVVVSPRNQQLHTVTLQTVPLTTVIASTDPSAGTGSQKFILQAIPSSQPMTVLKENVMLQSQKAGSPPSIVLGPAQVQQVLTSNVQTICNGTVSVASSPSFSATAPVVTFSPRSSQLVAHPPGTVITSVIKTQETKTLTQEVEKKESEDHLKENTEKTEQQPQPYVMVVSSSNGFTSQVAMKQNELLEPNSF

Binder | Kd (ELF1 [1]) | Kd (ETS1 (p51) [2]) | binding signal (ELF1 [3]) | binding signal (ETS1 (p51) [4])
ETS consensus CCGGAAGT (dsDNA) DNA 1: GGCCAAGCCGGAAGTGTGTGGTAAACACTTT DNA 2: AAAGTGTTTACCACACACTTCCGGCTTGGCC | 0.17 nM | 1.7 nM |  | 
A to T variant CCGGATGT (dsDNA) DNA 1: GGCCAAGCCGGATGTGTGTGGTAAACACTTT DNA 2: AAAGTGTTTACCACACACATCCGGCTTGGCC |  |  | 3.6 fold decrease in affinity vs N1 | 1 fold decrease in affinity vs N1
C to A variant CAGGAAGT (dsDNA) DNA 1: GGCCAAGCAGGAAGTGTGTGGTAAACACTTT DNA 2: AAAGTGTTTACCACACACTTCCTGCTTGGCC |  |  | 1.9 fold decrease in affinity vs N1 | 1.5 fold decrease in affinity vs N1
double variant CAGGATGT (dsDNA) DNA 1: GGCCAAGCAGGATGTGTGTGGTAAACACTTT DNA 2: AAAGTGTTTACCACACACATCCTGCTTGGCC |  |  | 18.3 fold decrease in affinity vs N1 | 2.4 fold decrease in affinity vs N1
